Measured values: the DeepSol protein solubility set

Test: soluble on expression in E. coli; label from the status in PepcDB or PDB records

| Sequence | soluble on expression in E. coli |
| --- | --- |
| MFNLGSMFNLGPSEPVVGKASILLECPAGKAFKFIGENLFLNYPRWSPEVKELEQLTHGPVCLGTIARQVRVDQGHRSESKFRITIYEPDRRVAFAGISDPFRCVYELLDEQNSGSTRLLFKFELLEIQMIMRPFEPMIRTAVQDGAERTVQNIKRLVESEPGALEHHHHHH | soluble |
| MGSDKIHHHHHHMGHSLNAKYGLKRVINASGRMSILGVSAPTDTVMDAMKHGGQNYVEIADLVDKAGDHIARILDSEAAVVVNSASSGIALSIAAIVTEGNRRKSERLHQEVIAKNEVIMLKGHNVQYGAPVETMIYLGGGKLVEVGYANEGKAEHIEDAIGENTAAILYVKSHHAVQKNMISVEEAWEVAQRNNIPLIVDAAAEEDIQKYVKYADLAIYSGSKAIEGPTSGIVGGKRKYIEWLKVQLHCIGRSMKVGKETTFGLLQALDEYGVKEDKSEQEKELLQVLMPLKELNGVNVTIVQDEAGRAIFRARIHIDENELNKSAKDVVTALREGEIAIYTRDYGVRQGFFDIDPRPLLGDDIHVIEEKLREIVGGN | not soluble |
| HDAIFILDKQGRLTWINQSYSALSGNTLEDIEGKDLPSILQLDKIKHANIIILLQSLETGTSISFELTNHHKDGTLFWIDVSITPILEPN | not soluble |
| MYEGLLIDIDYLLNVVKELKINFDKKIKTLNLLIERNIPIVLYTENNKEYVDTIMKYLKIKEPAIIVEGAQIYSPFDLSYEAVFPLSINTVCKLGNWAMDRKMDMSISTDKKVIDYSEWLKELRQVNYKNAGDKLPSAVKVDICMKNDDKRIELLNFIGKNNLECYAHMYLNHVACINSIVDKGNTLKYLANKKKWDIKKFAMIGDYSKDTSIFDEVGFLMSISDFTKDFEKNFDKTLKSDMMSIV | soluble |
| MAHHHHHHMLMFCRVPEDTAVRISLDVKKHFVNTERTSITQAELENYIRCSMIAAGFAQEHAQLFSVVTQFHAERIPLVLFLAGPERCGKTTLAHLLAARINCSTVINAEVLRDISASIDDSLPLFAVPETSSPDSTPSMLRGAEVSAVVAAEVDKAVREGRAIIVEGENLSFAGFHRFLEPSFQLSTGAVILGLVMEICGGEAETDASHAYVQALPNLHPVYSTERLTVLAADIGDLAKGVRGIPTVYVARYTTVADNVCLSVFLHDIVVKRIIAELKRRGRVL | not soluble |
| MEAVGADESYDGQQLYMMLVGHSRMADADRTAILGGTFTPIHNGHRALLHKAFQTASHDGSGDGHVIVGLTSPELATETRSDPTHVKQLGAYDDRRSALASELDQLGEPYTATYEIVRLDDTQGPAATRADVDALVASPEAKAQRRAYELNQQRRESGLHPLEIHTPPFVVAEDGTRISSTRIRNGEIDVHGRLLDASE | not soluble |
| MGSDKIHHHHHHMKFMKSLEPLNNHDETAAGDAMRGPSGGGNSASILNEAENILRDYYGGAIESLFIERLVVGVFFTGVKLSNGCGGVAYTPPETIRNASRRILRGSPSAIRGKSADVVISGKIPSPFADVIRLAAINALSVPFFQDGRYDFEKSDDLSDVSHLFTGRRVCMVGAIVPLLKRFKKMGVSEIKVIDRKKDSQIEVELACGEFLSPEQTAETIAQCETAVFTGAAVANGTIEHLLRLVPKEAAVAVVGPTAGFIPDPLFRRNVALVGTAMVTDIAAALDIIAEGGGAYPLFGRCVKKINILNRKRIEQLKPGSKTA | not soluble |
| MKYDILIAGVGGQGVVLASRILALSAMKAGFRVSTAETIGMSQREGSVSSHVRIGDEISGSLIPEGKADLLIGLEPAETIRNLPFLKEGGKIIVNSHAIPPASKPPGSPEYNPGALLSYLKTGFPDFFCLDFTRLAEEAGTYRAANVAMIGAAAGMGILPFSKEIVLALMEAEIPEKHRAVNRAAFEEAVKKIK | not soluble |
| MGKEITENIIDVEFKCNHFKMNGYIGNNNIYRSNKNLQHIYINKRFVKSKIIIDAITESYKSIIPIGKHAVCFLNIEVDPSCIDVNIHPNKLEIKFEKEQEVYIELRDFLKVKLIHSNLIGLEHHHHHH | not soluble |
| MGSDKIHHHHHHMDQKALSMFAHLSQTLHFGKTALAHHISPSTLSRAIQRLEDEVGGELLHRDNRTVVLTDVGKKFKIYAEQQLEQWHSFKQSLDHKQAALTGKLHIYCSVTAAYSHLPPLLERFRARHPLVEIMLTTGDAADALEQVQNQSVDFAIAAAPENLPRSVYFHHLDTIALTVIAPTMTCKVQQQLSQKVLTWSEIPIILPEHGAARKRFELWYRKKQQGKPTIYATVSGHEALVSMVALGCGVGIVPQVVVDNSPVKDRVSNLENIGDIEPFELGVCCLNQAKAQPLIKAFFSSIV | not soluble |
| MVARSPKGCQEKPVASGKSGIMPSSGRGFRALAPRTLAPFQGAFGGGPSSPGGPHEGGPTPWPTRWRSGSSASGARAGVTPRTLRRIFLEEVERELGPEKARLLAKQTLPFEEIFVVEGRKQRPFSKGLLTRSLEDAGFSLREAHELAKAVERRLRLEGVRRIPAKRLEKVVAEEARRLYGPEAGERYRARLLYAGELFVEEAPGAPRVPFSKGILAQSLMAIGLSPDRAFRLAREMEVALHREGVQVIRRDELRRRVHQALLREAGEEMARRYLILRSLRKQPRPVHILIGGVTGVGKSVLASALAYRLGITHIVPSDAVREVFRVSLSKDLLPTLHLSTFEAWRALSPGLGLEGESYEVQVMRGFLDQVAKVAVGLKAIQERSALEGTSIVLEGVHVVPRFLQHPYQDRVFTIPMLVAVQDENLHRDRFLLRDRETGHARPKERYLQHFEEIRLIQNHLLRWAREEGIPVIPGEDLDEGIEKALEVLVAYLEAQGQRLEEAHA | soluble |
| MGKSASKQFHNEVLKAHNEYRQKHGVPPLKLCKNLNREAQQYSEALASTRILKHSPESSRGQCGENLAWASYDQTGKEVADRWYSEIKNYNFQQPGFTSGTGHFTAMVWKNTKKMGVGKASASDGSSFVVARYFPAGNVVNEGFFEENVLPPKK | soluble |
| MGSEHAFQGPTSFHVIQTSSFTNSTWAQTQGSGWLDDLQIHGWDSDSGTAIFLKPWSKGNFSDKEVAELEEIFRVYIFGFAREVQDFAGDFQMKYPFEIQGIAGCELHSGGAIVSFLRGALGGLDFLSVKNASCVPSPEGGSRAQKFCALIIQYQGIMETVRILLYETCPRYLLGVLNAGKADLQRQVKPEAWLSSGPSPGPGRLQLVCHVSGFYPKPVWVMWMRGEQEQQGTQLGDILPNANWTWYLRATLDVADGEAAGLSCRVKHSSLEGQDIILYWGPGSGGGLNDIFEAQKIEWH | soluble |
| MDRLESVLKEERVFYPSEEFRKQAHIKSEEEYQRLYEESVRDPEGFWGRVASELHWFEPWRKVLEGDLPHPKWFVGGKTNLSYNALDRHVKTWRRNKAAIVWEGEPGEERVLTYHDLWREVQRFANVLKRLGVKKGDRVTIYLPMIPEAAIAMLACTRIGAVHSVVFGGFSAGALADRIKDAEAKVLITADGGFRRGGIVPLKQNADEALKDATSVEHVVVVRRTGEEVPWTPGRDHWWHELMEAAPDRCDPEPMEAEEPLFILYTSGSTGKPKGVLHTTGGYMTYVYYTTKLVFDLKDEDVYWCTADVGWITGHSYVVYGPLLNGATTVMYEGAPNWPEPDRFWRIVDKYGVTVFYTAPTAIRSFMKWGEGWPGKHRLDSLRLLGTVGEPINPEAWLWYYHVIGKGRCPIVDTWWQTETGGIMITTLPGAHAMKPGHAGKPFFGVVPEILDGEHRPVENPDEGGHLCITRPWPSMLRTVWGDPERFLQQYFSQHPGVYFSGDGAKRDKDGYYMILGRVDDVLNVAGHRLGTMEIESALVAHPAVAEAAVVGRPDPVKGEAIVAFVTLKEGHTPSDALKEELRAHVAKVIGPIARPDEIRFTDALPKTRSGKIMRRLLRQIAAGEKEIKGDTSTLEDRSVVERLKEGA | soluble |
| MGSDKIHHHHHHMPENYTPAAAATGTWTEEEIRHQPRAWIRSLTNIDALRSALNNFLEPLLRKENLRIILTGAGTSAFIGDIIAPWLASHTGKNFSAVPTTDLVTNPMDYLNPAHPLLLISFGRSGNSPESVAAVELANQFVPECYHLPITCNEAGALYQNAINSDNAFALLMPAETHDRGFAMTSSITTMMASCLAVFAPETINSQTFRDVADRCQAILTSLGDFSEGVFGYAPWKRIVYLGSGGLQGAARESALKVLELTAGKLAAFYDSPTGFRHGPKSLVDDETLVVVFVSSHPYTRQYDLDLLAELRRDNQAMRVIAIAAESSDIVAAGPHIILPPSRHFIDVEQAFCFLMYAQTFALMQSLHMGNTPDTPSASGTVNRVVQGVIIHPWQA | not soluble |
| YRATKLWNEVTTSFRAGMPLRKHRQHFKKYGNCFTAGEAVDWLYDLLRNNSNFGPEVTRQQTIQLLRKFLKNHVIEDIKGRWGSENVDDNNQLFRFPA | soluble |
| MAHHHHHHMHMFTNDWKSILAPLKSCRIKQQFDDREFLADFAMGLKLDFNNKYLVLDASTELLKFTAIESSDCCNRNCLPKMCIPINMKILTYGRELSRPDIVVEKDCSCTMLCLNRPTIKMYDFSNNNNKELIGTIKAPFSCCSYKFDLYDSAMRKIIYMDDTCCQLSILFPCPCGPFKFSNFFLRDAKTHEKVAHLQKEVPFLKFVKRDIDNYTLNFEQVQNPEWKMMLLAFSLFMDYIYYDRK | not soluble |
| MVSYGSHSSEVSKVLKTPKFVLRYGNVSSKQRFALKRKINYKLRESKYQEYLNEYNTFVLYDWENSGAGSLVDSSYNLPSLWKEFITEGISKGAINDKLPTVFMKRKLTNSALGHCLGLDFLTDPSESEHEYRCMFQTVQDIPSLSQLILFNSMPNVPVRLKLHTIGININFGCKRSLISNGGDQDTEMSEAVSYIQPLLEESSRMYRNLNYWKLLKIARNNKKDEPLDQSTRIKSQVKLLLSQLATNRITSPSVTDHGGHNWLIFTRRRL | not soluble |
| MLLNLFNEMRAAKVPVSLRELLDLINALKQRVIFADIDEFYFLARTILVKDERHFDKFDRAFGAYFNGLEKLDDHLQALIPEDWLRKEFERSLSDEERAQIQSLGGLDKLIDEFKKRLEEQKERHAGGNKWIGTGGTSPFGSGGYNPEGIRVGDAGERKGKAVKVWDQREYKNLDDQVDLGTRNIKVALRRLRKFARQGAADELDIDGTIDHTARDAGLLNIQMRPERRNTIKLLLLFDIGGSMDSHVKVCEELFSACKTEFKHMEYFYFHNFIYETVWKNNLRRGSERTATQDLLHKYGADYKVIFIGDASMAPYEITQPGGSVEHWNEEAGYVWMQRFMAKFKKVIWINPYPKDAWDYTTSTHIVRDLIEQHMYPLTLQGLEDGMRYLA | not soluble |
| MIVRGGGDLATGVIQKLWHVGFKILVLETECPLAIRRTVSVCDAIFQKEQRVEDLVAVRITSLKDCAKCWQQNKLPVFVDQTASAIQQLKPLIVIDAILAKKNLGTHRGMAPITIALGPGFSAPQDVDVVIETMRGHRLGRLYFEGTALPNTGIPGEIGGKSAERVVHAPASGQVTHLKNIGDLVLKGEALFLIDQVPVYSPLTGTLRGLISEKVTCYQGLKCADVDPRPVEKVDCLTISDKARALGGAVLEAIFMIGRRKNVLLEHHHHHH | soluble |
| SAKVSELYDVTWEEMRDKMRKWREENSRNSEQIVEVGEELINEYASKLGDDIWIIYEQVMIAALDYGRDDLALFCLQELRRQFPGSHRVKRLTGMRFEAMERYDDAIQLYDRILQEDPTNTAARKRKIAIRKAQGKNVEAIRELNEYLEQFVGDQEAWHELAELYINEHDYAKAAFCLEELMMTNPHNHLYCQQYAEVKYTQGGLENLELSRKYFAQALKLNNRNMRALFGLYMSASHIASNPKASAKTKKDNMKYASWAASQINRAYQFAGRSKKETKYSLKAVEDMLETLQITQS | not soluble |
| MGSDKIHHHHHHMVLLETNRLRLQTIDIPLLDAASKQDHQAIKELGYETNGEWPNSDFFEAIPYFREILVKNNGTKGFDSWIIVKKDNYEIVGGTGFLGDPDENGMIEIGFATNKSHRRKGYCVEAAQKLINWALSRETVSRITARCEHDNLGSQKTLEKLGFILNHKSAEYKHWIYVTK | not soluble |
